In the supplement of paper PMC10567573:

B1: SCNN1D (parent)
chain: FLGHHSFSVRPGTEATISIREDEV

Variants of: B1
Assay: protein stability index of a GFP-peptide fusion (GPS, HEK-293T) (PSI 1-6); higher = more stable
Conditions: c terminus: a fixed tail appended
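Also: lentivirally expressed fusions sorted by FACS into six bins by GFP to DsRed ratio, PSI derived from sequencing read proportions per bin multiplied by bin number.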

Protein stability index of substitutions, site by site:
V9: D 3.54, E 2.83, F 2.33, G 3.44, H 3.09, I 2.26, K 2.83, L 2.15, M 2.42, N 2.6, P 2.18, Q 2.86, R 3.8, S 2.12, T 2.29, W 1.64, Y 2.84
R10: A 1.56, C 2.52, D 2.77, E 2.94, F 1.66, G 2.04, H 2.3, I 1.9, K 2.33, L 1.41, M 2.03, N 1.53, P 2.11, Q 2.49, S 2.35, T 1.92, V 2.41, W 1.63, Y 1.63
P11: A 1.53, D 1.88, E 2.14, F 1.47, G 1.64, H 1.7, I 2.14, K 1.93, L 1.82, M 1.25, N 1.98, Q 1.99, R 2.02, S 1.72, T 1.59, V 1.53, W 1.97, Y 1.99
G12: A 2.2, C 2.24, D 2.35, E 1.88, F 2.69, H 1.81, I 1.54, K 1.71, L 1.71, M 1.85, N 2.05, P 1.83, Q 1.56, R 1.46, S 1.55, T 1.67, V 1.57, W 1.42, Y 1.15
T13: A 1.77, C 1.58, D 1.63, E 2.09, F 1.91, G 1.25, H 2.03, I 1.44, K 2.37, L 2.71, M 1.73, N 1.49, P 1.88, Q 1.97, R 1.7, S 1.18, V 1.49, Y 1.36
E14: A 1.92, C 1.65, D 1.13, F 1.37, G 2.31, H 2.11, I 1.77, K 1.93, L 1.92, M 1.25, N 1.82, P 1.76, Q 2.13, R 2.1, S 1.77, T 2.24, V 2.18, Y 1.19
A15: C 2.34, D 2.08, E 1.93, F 2.62, G 2.01, H 1.67, I 1.95, K 1.91, L 2.66, M 1.58, N 2, P 2.04, Q 1.96, R 1.88, S 2.63, T 2.31, V 1.47, W 3.05, Y 1.71
T16: A 2.37, C 1.29, D 3.29, E 1.62, F 2.04, G 2.1, H 1.87, I 2.29, K 1.75, L 1.49, M 2.62, N 2.05, P 1.85, Q 2.8, R 2.46, S 2.57, V 2.25, W 1.4, Y 2.23
I17: A 2.44, C 1.96, D 2.12, E 2.1, F 1.36, G 2.38, H 2.23, K 2.32, L 1.62, M 1.75, N 1.68, P 2.19, Q 2.54, R 2.07, S 1.66, T 2.24, V 1.68, W 1.58, Y 2.79
S18: A 1.6
